Article PMC10978878 (Nature Communications, 2024)

What was measured:
[1] = target: BA.2.12.1 spike, recombinant trimer that retains the native sequence (SARS-CoV-2, UniProt P0DTC2); test: cryo-EM structure; conditions: both partners purified
[2] = target: BA.4 spike, recombinant trimeric S-twin-Strep, prefusion stabilized (SARS-CoV-2, UniProt P0DTC2); test: cryo-EM structure; conditions: both partners purified

B1: SD1-2 Fab (Fab, V domains shown)
VH: QVQLVQSGPGLVKPSQTLSLTCSVSGDSISSGTYYWSWIRLPAGQGLEWIGRVHSSGSTSYNPSLKSRVTISVDTSKNNFSLKLSSVTAADTAVYYCVRLDNCSAGYCHAFDIWGQGTMVTVSS
VL: QSVLTQPASVSGSPGQSITISCTGTSSDVGSYNLVSWYQQHPGKAPKVMIYEVSKWPSGVSNRFSGSKSGNTASLTISGLQAEDEADYYCCSYAGSGTYVFGTGTKVTVL
[1]
  stoichiometry N: 3 Fab per spike trimer

B2: SD1-3 Fab (Fab, V domains shown)
VH: QVQLVESGGGLVQPGGSLRLSCTASGVTFSSYAMSWVRQAPGKGLEWVSGISGSGDSTYYADSVKGRFTISRDNSKNTLYLQMNSLRVEDTAVYYCATHYCSGGSCPFDYWGQGTLVTVSS
VL: PSALTQPPSVSVSPGQTASITCSGDKLGNKYAYWYQQKPGQSPVLVIFQDTMRPSGIPERFSASNSGNTATLTISGTQSIDEADYYCQAWDSNTAVFGGGTKLTVL
[1]
  stoichiometry N: 3 Fab per spike trimer

B3: SD1-1 Fab (Fab, V domains shown)
VH: QVQLVESGPGLVKPSETLSLTCSVSGGSIDNFYWSWIRQPPGKGLEWIGNIYYGGSGNYNPSLKSRVTISVDTSKNQVSLKLRSVTAADTAVYYCARDSVWYTGSYGLIYWGPGTLVTVSS
VL: SVVTQPASVSGSPGQSITISCTGTSSDVGSYNLVSWFQQHPGKAPKLMIYEVTKRPSGISNRFSGSKSGNTASLTISRLQAEDEADYYCCSYAGSSTVVFGGGTKLTVL
[2]
  stoichiometry N: 3 Fab per spike trimer
